Numbering of substitutions follows the chain as printed.
T1: mouse LAMP5 having a V5 tag added to the N-terminal thereof, expressed on CHO cells (mLAMP5 CHO) (mouse, UniProt Q9D387 30-280)
T1 construct: also called mouse-origined LAMP5; V5-mLAMP5
T1 sequence: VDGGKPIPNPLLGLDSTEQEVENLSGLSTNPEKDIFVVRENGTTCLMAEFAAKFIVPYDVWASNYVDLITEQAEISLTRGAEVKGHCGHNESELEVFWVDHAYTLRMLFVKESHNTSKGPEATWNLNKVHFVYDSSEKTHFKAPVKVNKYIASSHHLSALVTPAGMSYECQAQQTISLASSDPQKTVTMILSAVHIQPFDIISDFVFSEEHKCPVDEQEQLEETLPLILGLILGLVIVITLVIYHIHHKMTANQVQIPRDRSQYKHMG

T2: LAMP5 (endogenous, on KHM-1B multiple myeloma cells and in cancer cell line lysates) (human, UniProt Q9UJQ1 30-280)
T2 construct: Endogenous LAMP5 of the cell lines; also called BAD-LAMP; C20orf103
T2 sequence: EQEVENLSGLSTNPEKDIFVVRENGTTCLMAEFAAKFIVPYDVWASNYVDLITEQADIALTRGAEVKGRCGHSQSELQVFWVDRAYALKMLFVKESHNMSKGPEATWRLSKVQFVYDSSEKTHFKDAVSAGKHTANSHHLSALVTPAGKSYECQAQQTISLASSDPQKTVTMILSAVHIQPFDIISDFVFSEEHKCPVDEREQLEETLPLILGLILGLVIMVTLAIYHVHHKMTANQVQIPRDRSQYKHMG

B1: anti-LAMP5 monoclonal antibody D1 (antibody, mouse IgG1, V domains shown)
VH: EIQLQQSGPDLVKPGASVKVSCKASGFAFSTYNMYWVKQSHGKSLEWIGYIDPYNGDITYNQKFKGKATLTVDKSSSTAYMHLNSLTSEDSAVYYCARRDYFYAMDYWGQGTSVTVSS
VL: DIVMTQSHKFMSTSVGDRVSITCKASQGVGTAVAWYQQKPGQSPKLLIYWASTRHTGVPDRFTGSGSGTDFTLSVTNVQSEDLADYFCHQYSSYPLTFGSGTKLELK
notes: also called clone D1; D1 antibody
B2: anti-LAMP5 monoclonal antibody D9 (antibody, V domains shown)
VH: EVKLVESGGGLVKPGGSLKLSCAASGFTFSSYAMSWVRQTPEKRLEWVASISSGGSTYYPDSVKGRFTISRDNARNILYLQMSSLRSEDTAMYYCARLITTRFAYWGQGTLVTVSA
VL: ENVLTQSPAIMSASPGEKVTMTCRASSSVSSSYLHWYQQKSGASPKLWIYSTSNLASGVPARFSGSGSGTSYSLTISSVEAEDAATYYCQQYSGYPLTFGSGTKLEIK
notes: also called clone D9; D9 antibody
B3: anti-LAMP5 monoclonal antibody D10 (antibody, V domains shown)
VH: B1 VH with D10E, F27Y, S30T, T31S, D57G, T59S
VL: B1 VL with S74T, V75I, H89Q
notes: also called clone D10; D10 antibody
B4: anti-LAMP5 monoclonal antibody D2 (antibody, mouse IgG1, V domains shown)
VH: EVKLEESGGGLVQPGGSMKLSCTASGFTFSDAWMDWVRQSPEKGLEWVAEIRGKADNHATYYAESVKGRFTISRDDSKSSVYLQMNSLRTEDTAIYYCIPYYRYAMDYWGQGTSVTVSS
VL: QIVLTQSPAIMSASPGEKVTITCTASSSVSYMHWFQQKPGTSPKLWIYATSYLASGVPTRFSGSGSGTSYSLTISRMEAEDAATYYCQQKSNYPWTFGGGTNLEIK
notes: also called clone D2; D2 antibody

The binders below were run against T1, mouse LAMP5 having a V5 tag added to … (assay: FACS on mLAMP5 CHO cells, FITC anti-mouse IgG).
Protocol: (§1) Binding of the anti-LAMP5 monoclonal antibody produced in Example 2 to LAMP5 and mLAMP5 was evaluated by FACS. First, LAMP5 CHO (Example 2) or mLAMP5 CHO was suspended in FACS/PBS (PBS(−) comprising 0.2% bovine serum albumin (BSA) and 0.1% sodium azide) followed by disseminating into the wells of a 96-well round bottom plate at 5×10⁴ cells per well. After adding anti-LAMP5 monoclonal antibody to each well to a final concentration of 10, 2, 0.4, 0.08 or 0.016 μg/ml, the mixture was allowed to react for 1 hour on ice. After reacting, the cell suspensions were washed with FACS/PBS and allowed to react for 1 hour with FITC-labeled anti-mouse IgG antibody on ice. After reacting, the cells were washed with FACS/PBS and then suspended in FACS/PBS comprising 10 μg/ml of propidium iodide (Sigma-Aldrich Co. LLC.). The staining intensity of the cells was measured with a flow cytometer. Only viable cells not stained with propidium iodide were used in data analysis. As a result, clones D1, D2, D9 and D10 all bound concentration-dependently to LAMP5 (FIG. 2A). Clones D1, D2 and D10 in particular bound strongly in comparison with clone D9 (FIG. 2A). […] Clone D10 only bound weakly to mLAMP5 (FIG. 2B).
B1: no binding (tested: 10 µg/ml (highest concentration tested)).
B2: no binding (tested: 10 µg/ml (highest concentration tested)).

What follows are binders tested against T2, LAMP5 (endogenous, on KHM-1B multiple …) (assay: FACS on KHM-1B cells with or without IL-6 stimulation, 10 µg/mL antibody).
Protocol: as §1
Next, LAMP5 expression was measured by FACS in KHM-1B cells (with or without IL-6 stimulation). FACS was carried out in the same manner as Example 4 using anti-LAMP5 monoclonal antibodies D1, D2, D9 and D10 and a negative reference in the form of IgG1κ (Pharmingen Inc., Cat. No. 553447) at concentrations of 10 μg/mL. As a result, LAMP5 was detected on the cell membrane of KHM-1B cells, and the expressed amount thereof was confirmed to be increased by IL-6 stimulation (FIG. 4).
B1: binds.
B3: binds.
B4: binds.
B2: binds.
